Test results published in paper PMC10018337.
Numbering of substitutions follows the chain as printed.

Key:
Test in all cases: EMSA
CeMETT10-MTD = target: T1, CeMETT10-MTD (Caenorhabditis elegans, UniProt Q09357 1-314)
T1 sequence: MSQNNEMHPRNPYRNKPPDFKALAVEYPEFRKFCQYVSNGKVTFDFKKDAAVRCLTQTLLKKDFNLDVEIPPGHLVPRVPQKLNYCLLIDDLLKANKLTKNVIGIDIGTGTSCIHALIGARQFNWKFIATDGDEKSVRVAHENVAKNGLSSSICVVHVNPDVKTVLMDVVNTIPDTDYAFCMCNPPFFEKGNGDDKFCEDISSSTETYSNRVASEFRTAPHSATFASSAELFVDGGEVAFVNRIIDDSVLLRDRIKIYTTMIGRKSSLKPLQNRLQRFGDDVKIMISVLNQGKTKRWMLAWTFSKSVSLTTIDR

CeMETT10-FLΔL = target: T2, CeMETT10-FLΔL (Caenorhabditis elegans, UniProt Q09357 1-479, del386-430)
T2 sequence: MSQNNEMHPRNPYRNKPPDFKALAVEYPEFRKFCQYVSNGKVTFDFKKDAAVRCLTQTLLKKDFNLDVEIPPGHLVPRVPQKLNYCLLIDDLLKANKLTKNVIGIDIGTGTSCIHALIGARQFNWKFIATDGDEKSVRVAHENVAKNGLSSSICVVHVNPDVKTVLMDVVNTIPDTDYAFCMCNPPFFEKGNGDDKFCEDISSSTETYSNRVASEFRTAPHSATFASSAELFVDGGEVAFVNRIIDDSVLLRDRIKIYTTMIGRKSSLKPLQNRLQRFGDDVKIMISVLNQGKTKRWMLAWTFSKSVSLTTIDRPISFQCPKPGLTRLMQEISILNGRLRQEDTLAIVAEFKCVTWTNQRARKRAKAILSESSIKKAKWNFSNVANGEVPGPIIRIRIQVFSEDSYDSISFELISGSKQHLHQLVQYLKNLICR

CeMETT10-FLΔL_RRR/7E = target: T3, CeMETT10-FLΔL_RRR/7E (Caenorhabditis elegans, UniProt Q09357 1-479, R360E;A361E;R362E;K363E;R364E;A365E;K366E;del386-430)
T3 sequence: T2 sequence with R360E, A361E, R362E, K363E, R364E, A365E, K366E

B1: sams-hp-ls (structured_RNA)
RNA: GGCAACAAUAUGUUUCUUUACCUGUUACAACGGUUACUUUGAUUACAGAAACGGUGACUAAAACGGGUAUGAUCAUGUUGUGCCC
Kd (CeMETT10-MTD): 22.3 µM | Kd (CeMETT10-FLΔL): 0.14 µM | Kd (CeMETT10-FLΔL_RRR/7E): 8.3 µM
